# Publication PMC10590275 (Nature structural & molecular biology, 2023)
# Legend:
# mass photometry = target: the molecule itself; experiment: mass photometry
# [1] = target: human dynein_(MOTOR)^MT-B (microtubule-bound mutant motor domain) (human | T. thermophilus); experiment: mass photometry
binder,measurement,setting,value
human LIS1-SNAP (natural protein) VLSQRQRDELNRAIADYLRSNGYEEAYSVFKKEAELDVNEELDKKYAGLLEKKWTSVIRLQKKVMELESKLNEAKEEFTSGGPLGQKRDPKEWIPRPPEKYALSGHRSPVTRVIFHPVFSVMVSASEDATIKVWDYETGDFERTLKGHTDSVQDISFDHSGKLLASCSADMTIKLWDFQGFECIRTMHGHDHNVSSVAIMPNGDHIVSASRDKTIKMWEVQTGYCVKTFTGHREWVRMVRPNQDGTLIASCSNDQTVRVWVVATKECKAELREHEHVVECISWAPESSYSSISEATGSETKKSGKPGPFLLSGSRDKTIKMWDVSTGMCLMTLVGHDNWVRGVLFHSGGKFILSCADDKTLRVWDYKNKRCMKTLNAHEHFVTSLDFHKTAPYVVTGSVDQTVKVWECR,stoichiometry N,mass photometry,2
same,stoichiometry N,[1],1 LIS1 dimer per dynein_(MOTOR) monomer
